Data on 1 molecule can be found in publication PMC6842305 (Journal of medicinal chemistry, 2018).

The target of this assay is Truncated WDR5 (Δ23, residues 22–334) (UniProt P61964 22-334). The assay can be described thus: NMR titration.

Ac-ARTEVHLRKS-NH2 [MLL1 10mer peptide Ac-ARTEVHLRKS-NH2]: the binding result is on record as “binds”.
